One data set concerns primary cardiomyocytes. Description: sPDNF stimulation of primary cardiomyocytes, chemokine transcripts by qPCR. To be noted: 3 hr, dose-dependent. It counts as cell-based, mouse. The procedure:
FIG. 7A is a graph depicting MCP-1 and FKN expression in cardiomyocytes of mice infected with T cruzi. FIG. 7B is a graph depicting MCP-1 and FKN expression in cardiac fibroblasts of mice infected with T cruzi. T cruzi infection: Primary cultures of mouse cardiomyocytes (FIG. 7A) and cardiac fibroblasts (FIG. 7B) were plated in 6-well plates, infected with T cruzi Tulahuen strain (MOI=10) for 3, 24, and 72 hr, and MCP-1 and FKN transcripts were quantified by qPCR. Chemokine gene expression was normalized to HPRT and fold change calculated relative to uninfected cells. Points represent mean±SD fold change expression of triplicate samples. The experiment was repeated, and similar results were obtained. FIG. 7C is a graph depicting MCP-1 and FKN expression in cardiomyocytes of mice injected with sPDNF. FIG. 7D is a graph depicting MCP-1 and FKN expression in cardiac fibroblasts of mice injected with sPDNF. sPDNF stimulation: Primary cardiomyocytes (FIG. 7C) and cardiac fibroblasts (FIG. 7D) were plated in 6-well plates, serum starved overnight, then stimulated with the indicated concentration of sPDNF (3 hr), and MCP-1 and FKN transcripts were quantified by qPCR. Chemokine gene expression was normalized to HPRT and fold change calculated relative to vehicle-treated cells; *P<0.05, **P<0.01, and ***P<0.005. […]
Background: In qPCR the cycle at which signal appears reflects the starting amount.

Another data set deals with cardiac Sca-1+ cells. Description: Intravenous sPDNF into naïve mice, Sca-1 staining of heart sections. It counts as in vivo.
The subject of another data set is MCP-1 and FKN. Put plainly: IV sPDNF into TLR-deficient MyD88-/- mice, MCP-1 and FKN. It counts as in vivo. To be noted: IV 100 μg per mouse, 3 hr post-injection. As to the method: Wild type C57BL/6 mice were used in the results depicted in FIGS. 11A-11D. FIG. 11A is a graph depicting that a single dose of intravenous (IV) sPDNF increased MCP-1 and FKN transcripts in the heart in a pulse-like response. Groups of mice (2 per group) were injected with vehicle (Veh) or sPDNF (150 μg/mouse) and sacrificed at 3, 6, 9 and 12 hr post-injection, and cardiac MCP-1 and FKN transcripts were quantified by qPCR. Points represent fold change of the mean±SD relative to Veh injected mice; *P<0.05 and **P<0.01. Experiment repeated three times with similar results; liver also responded with similar pulselike kinetics. FIG. 11B is a graph depicting that organ distribution of MCP-1 increased following a single IV dose of sPDNF. Experimental design analogous to that summarized above. FIG. 11C is a graph showing that a single IV dose of sPDNF augments MCP-1 and FKN transcripts dose-dependently in the heart. […] For the results depicted in FIGS. 11C and 11D, groups of three mice were injected with various doses of sPDNF, and heart and liver harvested 3 hr post-injection to quantify MCP-1 and FKN by qPCR. […]
To ensure that the response observed in wild type mice was not due to TLR activation, MCP-1 and FKN response to IV sPDNF was assessed in TLR-deficient MyD88^−/− mice (23).

For data set [1] the following is noted: IV, naive mice; cited from earlier work.
The nature of data set [2]: Toxicity in RAG-2-/- deficient mice. It counts as in vivo. To be noted: highly susceptible to endotoxin shock.

B1: sPDNF: N-terminal short-form of T cruzi PDNF that contains Trk-binding sites, recombinant; amino acids 1-588 of SEQ ID NO: 2; JR-100 is the commercial name (protein, listed as Trypanosoma cruzi)
chain: MGKTVVVASRMFWLMFFVPLLLAICPSEPAYALAPGSSRVELFKRKNSTVPFEDKAGKVTERVVHSFRLPALVNVDGVMVAIADARYDTSNDNSLIDTVAKYSVDDGETWETQIAIKNSRVSSVSRVVDPTVIVKGNKLYVLVGSYYSSRSYWSSHGDARDWDILLAVGEVTKSTAGGKITASIKWGSPVSLKKFFPAEMEGMHTNQFLGGAGVAIVASNGNLVYPVQVTNKKKQVFSKIFYSEDDGKTWKFGKGRSDFGCSEPVALEWEGKLIINTRVDWKRRLVYESSDMEKPWVEAVGTVSRVWGPSPKSNQPGSQSSFTAVTIEGMRVMLFTHPLNFKGRWLRDRLNLWLTDNQRIYNVGQVSIGDENSAYSSVLYKDDKLYCLHEINTDEVYSLVFARLVGELRIIKSVLRSWKNWDSHLSSICTPADPAASSSESGCGPAVTTVGLVGFLSGNASQNVWEDAYRCVNASTANAERVRNGLKFAGVGGGALWPVSQQGQNQRYRFANHAFTLVASVTIHEAPRAASPLLGASLDSSGGKKLLGLSYDEKHQWQPIYGSTPVTPTGSWETGKRYHLVLTMANKI
For the molecule B1, in the data set on primary cardiomyocytes, the FKN transcripts result is “increase” and the MCP-1 transcripts entry is on record as “increase”. Moreover, the “cardiac Sca-1+ cells” value with cardiac Sca-1+ cells is “expanded”. Further, in the data set on MCP-1 and FKN, the “expression of FKN in the heart and liver” value is listed as “sharp increase”; the “expression of MCP-1 in the heart and liver” value is “sharp increase”. In data set [1], the “half-life in the blood” value is around 15 min and the “time of peak in the myocardium post-injection” value is given as around 15 min. Also, in data set [2], the toxicity result is given as “non-toxic”.

The values are drawn from patent publication US9744220B2, “Compositions and methods for treating inflammatory diseases” (priority 2013, dated 2017).
